Substitutions are numbered along the chain they refer to. Values belong to the binder of their own block, whether it stands above or below them.
What was measured:
[1] = target: T1, human CD71 extracellular domain (human, UniProt P02786 89-760); experiment: primary ELISA; note: test concentration or dose not given here
T1 construct: also called hCD71; human CD71-ECD

[2] = target: T2, apical domain of cynomolgus CD71 (cynomolgus, UniProt A0A2K5X958 189-383); experiment: primary ELISA; note: test concentration or dose not given here
T2 construct: domain: apical domain; also called Cyno apical domain

[3] = target: T1, human CD71 extracellular domain; experiment: primary ELISA, signal ratio to HSA
[4] = target: T2, apical domain of cynomolgus CD71; experiment: primary ELISA, signal ratio to HSA

T2 sequence (A0A2K5X958 entry or part of it): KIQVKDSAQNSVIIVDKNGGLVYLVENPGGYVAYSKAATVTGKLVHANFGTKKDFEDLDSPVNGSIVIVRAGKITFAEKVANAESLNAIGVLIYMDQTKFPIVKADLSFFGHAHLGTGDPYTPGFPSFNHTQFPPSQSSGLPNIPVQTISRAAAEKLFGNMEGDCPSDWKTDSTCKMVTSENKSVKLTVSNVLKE
T1 sequence (P02786 89-760): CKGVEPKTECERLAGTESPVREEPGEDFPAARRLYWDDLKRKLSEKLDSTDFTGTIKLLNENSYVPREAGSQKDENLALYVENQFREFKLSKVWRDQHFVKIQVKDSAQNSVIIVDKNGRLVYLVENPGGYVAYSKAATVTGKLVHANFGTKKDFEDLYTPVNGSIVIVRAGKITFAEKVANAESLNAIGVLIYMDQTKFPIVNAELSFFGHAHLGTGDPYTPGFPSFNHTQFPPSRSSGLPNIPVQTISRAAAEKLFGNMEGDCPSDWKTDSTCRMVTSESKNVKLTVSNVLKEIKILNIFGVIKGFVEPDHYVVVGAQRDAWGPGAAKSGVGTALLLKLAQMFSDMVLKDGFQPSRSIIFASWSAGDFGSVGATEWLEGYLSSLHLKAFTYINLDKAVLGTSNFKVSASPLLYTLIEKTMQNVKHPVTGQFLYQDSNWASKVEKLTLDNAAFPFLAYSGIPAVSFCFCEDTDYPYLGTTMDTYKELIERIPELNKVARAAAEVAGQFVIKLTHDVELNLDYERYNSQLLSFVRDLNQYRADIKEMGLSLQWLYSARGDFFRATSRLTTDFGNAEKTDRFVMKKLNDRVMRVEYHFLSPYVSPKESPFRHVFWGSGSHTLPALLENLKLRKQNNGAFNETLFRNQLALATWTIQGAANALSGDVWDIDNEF

B1: CD71-binding FN3 domain of SEQ ID NO: 160 (designed binder)
chain: MSLPAPKNLVVSRVTEDSARLSWTAPDAAFDSFEIGYFENLYLGEAIVLTVPGSERSYDLTGLKPGTEYWVQIGGVKGGNWSVPLSAIFTT
RLU [1]: 4.38e+06 RLU | RLU [2]: 5.02e+06 RLU | hCD71:HSA [3]: 88 | Cyno apical domain:HSA [4]: 100

B4: CD71-binding FN3 domain of SEQ ID NO: 170 (designed binder)
chain: B1 chain with V83T
RLU [1]: 3.81e+06 RLU | RLU [2]: 5e+06 RLU | hCD71:HSA [3]: 127 | Cyno apical domain:HSA [4]: 166

B5: CD71-binding FN3 domain of SEQ ID NO: 201 (designed binder)
chain: MSLPAPKNLVVSRVTEDSARLSWTAPDAAFDSFEIAYFEGTFHGEAIVLFVPGSERSYDLTGLKPGTEYAVWIGGVKGGDYSRPLSAAFTT
RLU [1]: 1.59e+06 RLU | RLU [2]: 3.01e+06 RLU | hCD71:HSA [3]: 40 | Cyno apical domain:HSA [4]: 76

B6: CD71-binding FN3 domain of SEQ ID NO: 190 (designed binder)
chain: B1 chain with V11I, V83A, F89S
RLU [1]: 3.66e+06 RLU | RLU [2]: 5.2e+06 RLU | hCD71:HSA [3]: 48 | Cyno apical domain:HSA [4]: 68

B7: CD71-binding FN3 domain of SEQ ID NO: 166 (designed binder)
chain: B1 chain with V76I, V83A
RLU [1]: 4.44e+06 RLU | RLU [2]: 5.02e+06 RLU | hCD71:HSA [3]: 153 | Cyno apical domain:HSA [4]: 173

B9: CD71-binding FN3 domain of SEQ ID NO: 183 (designed binder)
chain: B1 chain with V11I, G36V, F38A, N40P, L41V, Y42R, L43F, N80E, V83S
RLU [1]: 3.19e+06 RLU | RLU [2]: 4.47e+06 RLU | hCD71:HSA [3]: 108 | Cyno apical domain:HSA [4]: 15

B11: CD71-binding FN3 domain of SEQ ID NO: 202 (designed binder)
chain: B1 chain with W70Y, Q72H, N80I, V83S
RLU [1]: 1.11e+06 RLU | RLU [2]: 3.51e+06 RLU | hCD71:HSA [3]: 58 | Cyno apical domain:HSA [4]: 184

B12: CD71-binding FN3 domain of SEQ ID NO: 169 (designed binder)
chain: B1 chain with V83A, I88T
RLU [1]: 2.63e+06 RLU | RLU [2]: 4.35e+06 RLU | hCD71:HSA [3]: 289 | Cyno apical domain:HSA [4]: 478

B13: CD71-binding FN3 domain of SEQ ID NO: 171 (designed binder)
chain: B1 chain with N80E, V83S
RLU [1]: 4.4e+06 RLU | RLU [2]: 4.93e+06 RLU | hCD71:HSA [3]: 109 | Cyno apical domain:HSA [4]: 122

B14: CD71-binding FN3 domain of SEQ ID NO: 205 (designed binder)
chain: B1 chain with V48H, T50F, W70N, Q72T, G74Q, N80F, W81P, V83E, S86I, I88N
RLU [1]: 1.02e+06 RLU | RLU [2]: 4.1e+06 RLU | hCD71:HSA [3]: 53 | Cyno apical domain:HSA [4]: 213

B16: CD71-binding FN3 domain of SEQ ID NO: 164 (designed binder)
chain: B1 chain with E34F, F38L, N40P, L41Q, Y42P, L43P, V48H, T50Y, V83A
RLU [1]: 5.55e+06 RLU | RLU [2]: 3.78e+06 RLU | hCD71:HSA [3]: 286 | Cyno apical domain:HSA [4]: 195

B18: CD71-binding FN3 domain of SEQ ID NO: 191 (designed binder)
chain: B1 chain with T61A, V83A
RLU [1]: 4.2e+06 RLU | RLU [2]: 4.99e+06 RLU | hCD71:HSA [3]: 92 | Cyno apical domain:HSA [4]: 109

B20: CD71-binding FN3 domain of SEQ ID NO: 203 (designed binder)
chain: B1 chain with S18F, G36A, F38W, N40Q, L41S, L43T, W70F, Q72H, N80V, V83T
RLU [1]: 2.25e+06 RLU | RLU [2]: 4.85e+06 RLU | hCD71:HSA [3]: 168 | Cyno apical domain:HSA [4]: 362

B22: CD71-binding FN3 domain of SEQ ID NO: 192 (designed binder)
chain: B1 chain with N80W, W81G, V83N
RLU [1]: 2.67e+06 RLU | RLU [2]: 3.91e+06 RLU | hCD71:HSA [3]: 61 | Cyno apical domain:HSA [4]: 90

B23: CD71-binding FN3 domain of SEQ ID NO: 188 (designed binder)
chain: B1 chain with F38W, L41A, L43K, W70V, Q72F, N80H, W81G, V83Q
RLU [1]: 1.11e+06 RLU | RLU [2]: 3.37e+06 RLU | hCD71:HSA [3]: 33 | Cyno apical domain:HSA [4]: 100

B26: CD71-binding FN3 domain of SEQ ID NO: 186 (designed binder)
chain: B1 chain with L41P, V83A
RLU [1]: 3.63e+06 RLU | RLU [2]: 4.75e+06 RLU | hCD71:HSA [3]: 117 | Cyno apical domain:HSA [4]: 153

B27: CD71-binding FN3 domain of SEQ ID NO: 209 (designed binder)
chain: B1 chain with G36A, N40R, L41T, Y42W, L43F, N80D, V83R
RLU [1]: 4.27e+06 RLU | RLU [2]: 5.07e+06 RLU | hCD71:HSA [3]: 356 | Cyno apical domain:HSA [4]: 423

B29: CD71-binding FN3 domain of SEQ ID NO: 174 (designed binder)
chain: B1 chain with D27N, V83A
RLU [1]: 3.61e+06 RLU | RLU [2]: 4.71e+06 RLU | hCD71:HSA [3]: 127 | Cyno apical domain:HSA [4]: 165

B30: CD71-binding FN3 domain of SEQ ID NO: 206 (designed binder)
chain: B1 chain with V11A, V83A
RLU [1]: 3.9e+06 RLU | RLU [2]: 5.33e+06 RLU | hCD71:HSA [3]: 49 | Cyno apical domain:HSA [4]: 67

B31: CD71-binding FN3 domain of SEQ ID NO: 177 (designed binder)
chain: B1 chain with G62S, V83A
RLU [1]: 3.22e+06 RLU | RLU [2]: 4.54e+06 RLU | hCD71:HSA [3]: 110 | Cyno apical domain:HSA [4]: 156

B35: CD71-binding FN3 domain of SEQ ID NO: 211 (designed binder)
chain: B1 chain with G36V, F38A, N40P, L41V, Y42R, L43F, N80E, V83S, P84L
RLU [1]: 2.02e+06 RLU | RLU [2]: 4.67e+06 RLU | hCD71:HSA [3]: 76 | Cyno apical domain:HSA [4]: 177

B36: CD71-binding FN3 domain of SEQ ID NO: 176 (designed binder)
chain: B1 chain with E34F, F38L, N40P, L41Q, Y42P, L43P, V48H, T50F, V83A
RLU [1]: 7.01e+06 RLU | RLU [2]: 6.06e+06 RLU | hCD71:HSA [3]: 172 | Cyno apical domain:HSA [4]: 149

Continued, values first:

RLU [1]: 3.49e+06 RLU | RLU [2]: 4.72e+06 RLU | hCD71:HSA [3]: 127 | Cyno apical domain:HSA [4]: 172
B2: CD71-binding FN3 domain of SEQ ID NO: 200 (designed binder)
chain: B1 chain with G79S, V83A

RLU [1]: 3.45e+06 RLU | RLU [2]: 4.87e+06 RLU | hCD71:HSA [3]: 1380 | Cyno apical domain:HSA [4]: 1950
B3: CD71-binding FN3 domain of SEQ ID NO: 189 (designed binder)
chain: B1 chain with N40H, L41T, L43Y, V83A

RLU [1]: 3.81e+06 RLU | RLU [2]: 4.96e+06 RLU | hCD71:HSA [3]: 101 | Cyno apical domain:HSA [4]: 131
B8: CD71-binding FN3 domain of SEQ ID NO: 182 (designed binder)
chain: B1 chain with K7E, F38W, L41A, L43K, W70V, Q72F, N80V, A87V

RLU [1]: 4.41e+06 RLU | RLU [2]: 5.65e+06 RLU | hCD71:HSA [3]: 234 | Cyno apical domain:HSA [4]: 300
B10: CD71-binding FN3 domain of SEQ ID NO: 173 (designed binder)
chain: MSLPAPKNLVVSRVTEDSARLSWTAPDAAFDSFEIAYQELSLWGEAIVLTVPGSERSYDLTGLKPGTEYYVHIGGVKGGIWSSPLVAHFTT

RLU [1]: 4.06e+06 RLU | RLU [2]: 5.45e+06 RLU | hCD71:HSA [3]: 142 | Cyno apical domain:HSA [4]: 19
B15: CD71-binding FN3 domain of SEQ ID NO: 208 (designed binder)
chain: B1 chain with E34F, V83A

RLU [1]: 2.56e+06 RLU | RLU [2]: 3.78e+06 RLU | hCD71:HSA [3]: 52 | Cyno apical domain:HSA [4]: 77
B17: CD71-binding FN3 domain of SEQ ID NO: 194 (designed binder)
chain: B1 chain with W70P, Q72W, N80T, A87T

RLU [1]: 4.45e+06 RLU | RLU [2]: 4.9e+06 RLU | hCD71:HSA [3]: 170 | Cyno apical domain:HSA [4]: 187
B19: CD71-binding FN3 domain of SEQ ID NO: 199 (designed binder)
chain: B1 chain with S54Y, V83A

RLU [1]: 3.58e+06 RLU | RLU [2]: 4.94e+06 RLU | hCD71:HSA [3]: 22 | Cyno apical domain:HSA [4]: 31
B21: CD71-binding FN3 domain of SEQ ID NO: 207 (designed binder)
chain: B1 chain with F38W, L41A, L43K, W70V, Q72F, N80V, F89S

RLU [1]: 3.74e+06 RLU | RLU [2]: 5.08e+06 RLU | hCD71:HSA [3]: 74 | Cyno apical domain:HSA [4]: 101
B24: CD71-binding FN3 domain of SEQ ID NO: 184 (designed binder)
chain: B1 chain with L21P, G36A, N40R, L41T, Y42W, L43F, N80D, V83K

RLU [1]: 2.33e+06 RLU | RLU [2]: 3.95e+06 RLU | hCD71:HSA [3]: 68 | Cyno apical domain:HSA [4]: 116
B25: CD71-binding FN3 domain of SEQ ID NO: 193 (designed binder)
chain: B1 chain with V83E

RLU [1]: 2.84e+06 RLU | RLU [2]: 4.61e+06 RLU | hCD71:HSA [3]: 133 | Cyno apical domain:HSA [4]: 216
B28: CD71-binding FN3 domain of SEQ ID NO: 181 (designed binder)
chain: B1 chain with L41D, L43F, V83A

RLU [1]: 1.01e+06 RLU | RLU [2]: 4.29e+06 RLU | hCD71:HSA [3]: 21 | Cyno apical domain:HSA [4]: 91
B32: CD71-binding FN3 domain of SEQ ID NO: 175 (designed binder)
chain: B10 chain with Y70V, H72F, I80V, S83V, V86S, H88I

RLU [1]: 2.88e+06 RLU | RLU [2]: 4.2e+06 RLU | hCD71:HSA [3]: 106 | Cyno apical domain:HSA [4]: 155
B33: CD71-binding FN3 domain of SEQ ID NO: 195 (designed binder)
chain: B1 chain with V10I, G79S, V83A

RLU [1]: 3.06e+06 RLU | RLU [2]: 4.22e+06 RLU | hCD71:HSA [3]: 67 | Cyno apical domain:HSA [4]: 93
B34: CD71-binding FN3 domain of SEQ ID NO: 187 (designed binder)
chain: B1 chain with F38W, L41A, L43K, W70R, Q72W, N80V, V83R

RLU [1]: 4.34e+06 RLU | RLU [2]: 5.23e+06 RLU | hCD71:HSA [3]: 31 | Cyno apical domain:HSA [4]: 37
B37: CD71-binding FN3 domain of SEQ ID NO: 172 (designed binder)
chain: B1 chain with L3R, D27G, G36A, N40R, L41T, Y42W, L43F, G53S, N80D, V83K

— patent US20260151494A1 (ARO BIOTHERAPEUTICS, published 2026)
